The values below come from paper PMC11832919 (Nature Communications, 2025).

Broadly, the Kd is a measure of binding affinity in units of concentration.

This test addresses StrepTag II-IsdB (Staphylococcus aureus iron-regulated surface determinant protein B) (S. aureus, UniProt Q2FZF0 41-613). Kind of test: SAXS.

Sequence of StrepTag II-IsdB (Staphylococcus aureus iron-regulated surface determinant protein B) (Q2FZF0 41-613): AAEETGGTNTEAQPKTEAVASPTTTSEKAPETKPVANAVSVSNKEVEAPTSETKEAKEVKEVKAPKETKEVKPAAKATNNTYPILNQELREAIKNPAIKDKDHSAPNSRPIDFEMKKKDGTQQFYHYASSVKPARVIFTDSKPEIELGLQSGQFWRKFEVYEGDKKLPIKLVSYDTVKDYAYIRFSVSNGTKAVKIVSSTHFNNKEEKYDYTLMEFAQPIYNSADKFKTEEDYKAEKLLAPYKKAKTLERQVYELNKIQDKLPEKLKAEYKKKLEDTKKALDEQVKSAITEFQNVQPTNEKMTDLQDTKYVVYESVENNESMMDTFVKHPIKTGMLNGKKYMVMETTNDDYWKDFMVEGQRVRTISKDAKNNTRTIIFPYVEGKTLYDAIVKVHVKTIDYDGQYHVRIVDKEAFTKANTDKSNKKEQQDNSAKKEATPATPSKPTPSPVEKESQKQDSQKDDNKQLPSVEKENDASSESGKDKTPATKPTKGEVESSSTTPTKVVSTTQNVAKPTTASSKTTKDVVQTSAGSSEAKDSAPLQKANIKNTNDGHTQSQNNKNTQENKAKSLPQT

B1: human methemoglobin (coordinating oxidized heme) (complex)
chain 1: not shown
chain 2: not shown
On to B1, for which the affinity, expressed as Kd, was 1680 ± 620 nM.
